Patent US20130244255A1, “ANTIBODIES DIRECTED TO GPNMB AND USES THEREOF” (priority 2006, published 2013)

Columns and labels:
[1] = target: GPNMB (CG56972) as expressed by human cell lines (human) (UniProt Q14956); assay: FACS on UACC-62 cells, antibody 1 ug/mL
[2] = target: GPNMB (CG56972) as expressed by human cell lines (human) (UniProt Q14956); assay: flow cytometry on SK-MEL-2 cells, anti human IgG PE; control sample
[3] = target: GPNMB (CG56972) as expressed by human cell lines (human) (UniProt Q14956); assay: flow cytometry on HEK293 cells transfected with GPNMB plasmid, secondary antibody alone (background); on empty-vector cells printed as 5.86
[4] = target: GPNMB (CG56972) as expressed by human cell lines (human) (UniProt Q14956); assay: flow cytometry on HEK293 cells transfected with GPNMB plasmid, PE-conjugated secondary antibody; the same sample on empty-vector cells is printed as 7.96

Chain of GPNMB (CG56972) as expressed by human cell lines (human) (Q14956 23-492): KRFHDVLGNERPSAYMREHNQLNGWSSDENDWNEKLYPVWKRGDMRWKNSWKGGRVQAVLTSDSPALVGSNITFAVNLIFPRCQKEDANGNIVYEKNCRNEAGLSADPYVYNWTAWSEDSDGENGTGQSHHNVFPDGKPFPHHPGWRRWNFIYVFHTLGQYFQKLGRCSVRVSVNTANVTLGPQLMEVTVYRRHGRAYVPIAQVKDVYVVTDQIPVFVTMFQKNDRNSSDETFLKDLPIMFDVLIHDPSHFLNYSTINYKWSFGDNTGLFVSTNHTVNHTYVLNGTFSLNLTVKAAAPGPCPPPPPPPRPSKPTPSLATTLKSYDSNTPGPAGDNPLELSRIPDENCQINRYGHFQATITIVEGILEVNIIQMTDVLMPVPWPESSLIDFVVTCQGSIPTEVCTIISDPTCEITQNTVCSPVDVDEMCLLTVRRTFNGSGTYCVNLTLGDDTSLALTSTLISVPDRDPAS

Substance: CR011.2.6.2 (antibody)
- Geo Mean Ratio (relative to pK16) [1]: 1.9

Substance: Control (antibody)
- Geo Mean [2]: 3.03
- Median [2]: 2.84

Substance: Secondary Ab-PE (antibody)
- Geometric mean [3]: 7.69

Substance: isotype-matched control IgG2 antibody
- Geometric mean [4]: 8.63
